Target: Recombinant human kallikrein 7 (KLK7) (human, UniProt P49862 30-253)
Test: cell-based or functional assay

Recombinant human kallikrein 7 (KLK7), sequence (P49862 30-253): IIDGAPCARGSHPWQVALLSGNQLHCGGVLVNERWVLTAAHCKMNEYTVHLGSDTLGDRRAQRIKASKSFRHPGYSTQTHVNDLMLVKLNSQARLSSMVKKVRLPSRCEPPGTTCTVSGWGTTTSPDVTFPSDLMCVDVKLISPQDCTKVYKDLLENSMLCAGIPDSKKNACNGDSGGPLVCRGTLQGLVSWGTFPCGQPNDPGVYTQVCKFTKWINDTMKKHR

second-order rate constant of KLK7 inhibition by vaspin under pseudo-first-order conditions, x-fold over control, with polyP45 (polyP/serpin ratio of 10:1): 5 fold
second-order rate constant of KLK7 inhibition by vaspin under pseudo-first-order conditions, x-fold over control, with unfractionated heparin (ligand/serpin ratio of 10): 5 fold
B1: Recombinant human vaspin wild type (visceral adipose tissue derived serine protease inhibitor, SERPINA12) (natural protein)
chain: KPSFSPRNYKALSEVQGWKQRMAAKELARQNMDLGFKLLKKLAFYNPGRNIFLSPLSISTAFSMLCLGAQDSTLDEIKQGFNFRKMPEKDLHEGFHYIIHELTQKTQDLKLSIGNTLFIDQRLQPQRKFLEDAKNFYSAETILTNFQNLEMAQKQINDFISQKTHGKINNLIENIDPGTVMLLANYIFFRARWKHEFDPNVTKEEDFFLEKNSSVKVPMMFRSGIYQVGYDDKLSCTILEIPYQKNITAIFILPDEGKLKHLEKGLQVDTFSRWKTLLSRRVVDVSVPRLHMTGTFDLKKTLSYIGVSKIFEEHGDLTKIAPHRSLKVGEAVHKAELKMDERGTEGAAGTGAQTLPMETPLVVKIDKPYLLLIYSEKIPSVLFLGKIVNPIGK
